# Molecular target: T1, MHC class I allele B*0702 (bound via biotin to streptavidin-coated plate)
# T1 construct: iTopia MHC class I monomer on the plate; placeholder peptide and b2M removed, then reconstituted with test peptide and fresh b2M; also called B7; HLA B7
# Assay: iTopia peptide binding assay
# Procedure: (§1) The 9 mers were tested for Peptide Binding, Off Rate and Affinity using iTopia Epitope Discovery System in accordance with the manufacturer's instructions. Briefly, 96 well microtitre plates coated with MHC molecules representing different MHC alleles are used to identify candidate peptides. […] Determinations are performed in duplicate using an ELISA plate reader and included allele specific positive controls.
# (§2) i) Peptide Binding—This assay measures the ability of individual peptides to bind to the MHC molecules under standardized optimal binding conditions. The assay is performed for all the test peptides across the selected MHC alleles. The test peptides identified as “binders” are characterized further in terms of affinity and dissociation experiments.
row,Binder,% of positive control peptide binding [%]
1,ERQNRSFEG (also called Peptide No 95) [5T4 9 mer peptide 95 ERQNRSFEG],1
2,GMVVAALLA (also called Peptide No 99) [5T4 9 mer peptide 99 GMVVAALLA],0
3,VVAALLAGR (also called Peptide No 100) [5T4 9 mer peptide 100 VVAALLAGR],7
4,AALLAGRAL [5T4 9 mer peptide 101 AALLAGRAL],59
5,AGRALQGLR (also called Peptide No 103) [5T4 9 mer peptide 103 AGRALQGLR],1
6,RRLELASNH [5T4 9 mer peptide 107 RRLELASNH],3
7,LASNHFLYL [5T4 9 mer peptide 109 LASNHFLYL],49
8,LPRDVLAQL [5T4 9 mer peptide 113 LPRDVLAQL],79
9,RDVLAQLPS [5T4 9 mer peptide 114 RDVLAQLPS],4
10,LDLSNNSLV (also called Peptide No 120) [5T4 9 mer peptide 120 LDLSNNSLV],3
11,VSSSSPTSS (also called Peptide No 15) [5T4 9 mer peptide 15 VSSSSPTSS],2
12,SSSPTSSAS (also called Peptide No 16) [5T4 9 mer peptide 16 SSSPTSSAS],8
13,SPTSSASSF (also called Peptide No 17) [5T4 9 mer peptide 17 SPTSSASSF],62
14,SSAPFLASA (also called Peptide No 22) [5T4 9 mer peptide 22 SSAPFLASA],7

# Molecular target: T2, MHC class I molecule A*0301 (biotin (bound to streptavidin-coated plate))
# T2 construct: iTopia monomer stripped of placeholder peptide and b2M, then reconstituted with test peptide and fresh b2M; also called A3; HLA-A3
# Assay: iTopia peptide binding assay
# Procedure: as §1, §2
row,Binder,"binding, % of positive control peptide"
1,NNSLVSLTY [5T4 9-mer peptide 122 (NNSLVSLTY)],4 % of positive control
2,LTYVSFRNL [5T4 9-mer peptide 125 (LTYVSFRNL)],20 % of positive control
3,SFRNLTHLE [5T4 9-mer peptide 127 (SFRNLTHLE)],1 % of positive control
4,HLESLHLED [5T4 9-mer peptide 130 (HLESLHLED)],2 % of positive control
5,ESLHLEDNA [5T4 9-mer peptide 131 (ESLHLEDNA)],0 % of positive control
6,LHLEDNALK [5T4 9-mer peptide 132 (LHLEDNALK)],5 % of positive control
7,DNALKVLHN [5T4 9-mer peptide 134 (DNALKVLHN)],0 % of positive control
8,NGTLAELQG [5T4 9-mer peptide 138 (NGTLAELQG)],3 % of positive control
9,AELQGLPHI [5T4 9-mer peptide 140 (AELQGLPHI)],1 % of positive control
10,PHIRVFLDN [5T4 9-mer peptide 143 (PHIRVFLDN)],3 % of positive control
11,IRVFLDNNP [5T4 9-mer peptide 144 (IRVFLDNNP)],3 % of positive control
12,LDNNPWVCD [5T4 9-mer peptide 146 (LDNNPWVCD)],2 % of positive control
13,NNPWVCDCH [5T4 9-mer peptide 147 (NNPWVCDCH)],16 % of positive control
14,PWVCDCHMA [5T4 9-mer peptide 148 (PWVCDCHMA)],0 % of positive control

# Molecular target: T3, MHC class I molecule B*0702 (biotin (bound to streptavidin-coated plate))
# T3 construct: iTopia monomer stripped of placeholder peptide and b2M, then reconstituted with test peptide and fresh b2M; also called B7; HLA-B7
# Assay: iTopia peptide binding assay
# Procedure: as §1, §2
row,Binder,"binding, % of positive control peptide"
1,NNSLVSLTY [5T4 9-mer peptide 122 (NNSLVSLTY)],0 % of positive control
2,LTYVSFRNL [5T4 9-mer peptide 125 (LTYVSFRNL)],58 % of positive control
3,SFRNLTHLE [5T4 9-mer peptide 127 (SFRNLTHLE)],0 % of positive control
4,HLESLHLED [5T4 9-mer peptide 130 (HLESLHLED)],2 % of positive control
5,ESLHLEDNA [5T4 9-mer peptide 131 (ESLHLEDNA)],0 % of positive control
6,LHLEDNALK [5T4 9-mer peptide 132 (LHLEDNALK)],0 % of positive control
7,DNALKVLHN [5T4 9-mer peptide 134 (DNALKVLHN)],0 % of positive control
8,NGTLAELQG [5T4 9-mer peptide 138 (NGTLAELQG)],0 % of positive control
9,AELQGLPHI [5T4 9-mer peptide 140 (AELQGLPHI)],0 % of positive control
10,PHIRVFLDN [5T4 9-mer peptide 143 (PHIRVFLDN)],10 % of positive control
11,IRVFLDNNP [5T4 9-mer peptide 144 (IRVFLDNNP)],5 % of positive control
12,LDNNPWVCD [5T4 9-mer peptide 146 (LDNNPWVCD)],3 % of positive control
13,NNPWVCDCH [5T4 9-mer peptide 147 (NNPWVCDCH)],4 % of positive control
14,PWVCDCHMA [5T4 9-mer peptide 148 (PWVCDCHMA)],0 % of positive control

# Molecular target: T4, MHC class I allele A*0101 (bound via biotin to streptavidin-coated plate)
# T4 construct: iTopia MHC class I monomer on the plate; placeholder peptide and b2M removed, then reconstituted with test peptide and fresh b2M; also called A1; HLA A1
# Assay: iTopia peptide binding assay
# Procedure: as §1, §2
row,Binder,% of positive control peptide binding [%]
1,ERQNRSFEG (also called Peptide No 95) [5T4 9 mer peptide 95 ERQNRSFEG],0
2,GMVVAALLA (also called Peptide No 99) [5T4 9 mer peptide 99 GMVVAALLA],0
3,VVAALLAGR (also called Peptide No 100) [5T4 9 mer peptide 100 VVAALLAGR],9
4,AALLAGRAL [5T4 9 mer peptide 101 AALLAGRAL],1
5,AGRALQGLR (also called Peptide No 103) [5T4 9 mer peptide 103 AGRALQGLR],0
6,RRLELASNH [5T4 9 mer peptide 107 RRLELASNH],0
7,LASNHFLYL [5T4 9 mer peptide 109 LASNHFLYL],26
8,LPRDVLAQL [5T4 9 mer peptide 113 LPRDVLAQL],3
9,RDVLAQLPS [5T4 9 mer peptide 114 RDVLAQLPS],1
10,LDLSNNSLV (also called Peptide No 120) [5T4 9 mer peptide 120 LDLSNNSLV],7
11,VSSSSPTSS (also called Peptide No 15) [5T4 9 mer peptide 15 VSSSSPTSS],3
12,SSSPTSSAS (also called Peptide No 16) [5T4 9 mer peptide 16 SSSPTSSAS],4
13,SPTSSASSF (also called Peptide No 17) [5T4 9 mer peptide 17 SPTSSASSF],2
14,SSAPFLASA (also called Peptide No 22) [5T4 9 mer peptide 22 SSAPFLASA],6

# Molecular target: T5, MHC class I allele A*0301 (bound via biotin to streptavidin-coated plate)
# T5 construct: iTopia MHC class I monomer on the plate; placeholder peptide and b2M removed, then reconstituted with test peptide and fresh b2M; also called A3; HLA A3
# Assay: iTopia peptide binding assay
# Procedure: as §1, §2
row,Binder,% of positive control peptide binding [%]
1,ERQNRSFEG (also called Peptide No 95) [5T4 9 mer peptide 95 ERQNRSFEG],1
2,GMVVAALLA (also called Peptide No 99) [5T4 9 mer peptide 99 GMVVAALLA],0
3,VVAALLAGR (also called Peptide No 100) [5T4 9 mer peptide 100 VVAALLAGR],49
4,AALLAGRAL [5T4 9 mer peptide 101 AALLAGRAL],0
5,AGRALQGLR (also called Peptide No 103) [5T4 9 mer peptide 103 AGRALQGLR],2
6,RRLELASNH [5T4 9 mer peptide 107 RRLELASNH],3
7,LASNHFLYL [5T4 9 mer peptide 109 LASNHFLYL],18
8,LPRDVLAQL [5T4 9 mer peptide 113 LPRDVLAQL],3
9,RDVLAQLPS [5T4 9 mer peptide 114 RDVLAQLPS],3
10,LDLSNNSLV (also called Peptide No 120) [5T4 9 mer peptide 120 LDLSNNSLV],3
11,VSSSSPTSS (also called Peptide No 15) [5T4 9 mer peptide 15 VSSSSPTSS],2
12,SSSPTSSAS (also called Peptide No 16) [5T4 9 mer peptide 16 SSSPTSSAS],2
13,SPTSSASSF (also called Peptide No 17) [5T4 9 mer peptide 17 SPTSSASSF],0
14,SSAPFLASA (also called Peptide No 22) [5T4 9 mer peptide 22 SSAPFLASA],1

# Molecular target: T6, MHC class I allele A*0201 (bound via biotin to streptavidin-coated plate)
# T6 construct: iTopia MHC class I monomer on the plate; placeholder peptide and b2M removed, then reconstituted with test peptide and fresh b2M; also called A2; HLA A2
# Assay: iTopia peptide binding assay
# Procedure: as §1, §2
row,Binder,% of positive control peptide binding [%]
1,ERQNRSFEG (also called Peptide No 95) [5T4 9 mer peptide 95 ERQNRSFEG],1
2,GMVVAALLA (also called Peptide No 99) [5T4 9 mer peptide 99 GMVVAALLA],71
3,VVAALLAGR (also called Peptide No 100) [5T4 9 mer peptide 100 VVAALLAGR],11
4,AALLAGRAL [5T4 9 mer peptide 101 AALLAGRAL],38
5,AGRALQGLR (also called Peptide No 103) [5T4 9 mer peptide 103 AGRALQGLR],2
6,RRLELASNH [5T4 9 mer peptide 107 RRLELASNH],5
7,LASNHFLYL [5T4 9 mer peptide 109 LASNHFLYL],78
8,LPRDVLAQL [5T4 9 mer peptide 113 LPRDVLAQL],10
9,RDVLAQLPS [5T4 9 mer peptide 114 RDVLAQLPS],15
10,LDLSNNSLV (also called Peptide No 120) [5T4 9 mer peptide 120 LDLSNNSLV],42
11,VSSSSPTSS (also called Peptide No 15) [5T4 9 mer peptide 15 VSSSSPTSS],9
12,SSSPTSSAS (also called Peptide No 16) [5T4 9 mer peptide 16 SSSPTSSAS],7
13,SPTSSASSF (also called Peptide No 17) [5T4 9 mer peptide 17 SPTSSASSF],4
14,SSAPFLASA (also called Peptide No 22) [5T4 9 mer peptide 22 SSAPFLASA],85

# Molecular target: T7, MHC class I molecule A*0101 (biotin (bound to streptavidin-coated plate))
# T7 construct: iTopia monomer stripped of placeholder peptide and b2M, then reconstituted with test peptide and fresh b2M; also called A1; HLA-A1
# Assay: iTopia peptide binding assay
# Procedure: as §1, §2
row,Binder,"binding, % of positive control peptide"
1,NNSLVSLTY [5T4 9-mer peptide 122 (NNSLVSLTY)],8 % of positive control
2,LTYVSFRNL [5T4 9-mer peptide 125 (LTYVSFRNL)],28 % of positive control
3,SFRNLTHLE [5T4 9-mer peptide 127 (SFRNLTHLE)],1 % of positive control
4,HLESLHLED [5T4 9-mer peptide 130 (HLESLHLED)],4 % of positive control
5,ESLHLEDNA [5T4 9-mer peptide 131 (ESLHLEDNA)],2 % of positive control
6,LHLEDNALK [5T4 9-mer peptide 132 (LHLEDNALK)],4 % of positive control
7,DNALKVLHN [5T4 9-mer peptide 134 (DNALKVLHN)],1 % of positive control
8,NGTLAELQG [5T4 9-mer peptide 138 (NGTLAELQG)],3 % of positive control
9,AELQGLPHI [5T4 9-mer peptide 140 (AELQGLPHI)],0 % of positive control
10,PHIRVFLDN [5T4 9-mer peptide 143 (PHIRVFLDN)],0 % of positive control
11,IRVFLDNNP [5T4 9-mer peptide 144 (IRVFLDNNP)],0 % of positive control
12,LDNNPWVCD [5T4 9-mer peptide 146 (LDNNPWVCD)],0 % of positive control
13,NNPWVCDCH [5T4 9-mer peptide 147 (NNPWVCDCH)],0 % of positive control
14,PWVCDCHMA [5T4 9-mer peptide 148 (PWVCDCHMA)],0 % of positive control

# Molecular target: T8, MHC class I molecule A*0201 (biotin (bound to streptavidin-coated plate))
# T8 construct: iTopia monomer stripped of placeholder peptide and b2M, then reconstituted with test peptide and fresh b2M; also called A2; HLA-A2
# Assay: iTopia peptide binding assay
# Procedure: as §1, §2
row,Binder,"binding, % of positive control peptide"
1,NNSLVSLTY [5T4 9-mer peptide 122 (NNSLVSLTY)],12 % of positive control
2,LTYVSFRNL [5T4 9-mer peptide 125 (LTYVSFRNL)],25 % of positive control
3,SFRNLTHLE [5T4 9-mer peptide 127 (SFRNLTHLE)],1 % of positive control
4,HLESLHLED [5T4 9-mer peptide 130 (HLESLHLED)],3 % of positive control
5,ESLHLEDNA [5T4 9-mer peptide 131 (ESLHLEDNA)],8 % of positive control
6,LHLEDNALK [5T4 9-mer peptide 132 (LHLEDNALK)],4 % of positive control
7,DNALKVLHN [5T4 9-mer peptide 134 (DNALKVLHN)],5 % of positive control
8,NGTLAELQG [5T4 9-mer peptide 138 (NGTLAELQG)],9 % of positive control
9,AELQGLPHI [5T4 9-mer peptide 140 (AELQGLPHI)],9 % of positive control
10,PHIRVFLDN [5T4 9-mer peptide 143 (PHIRVFLDN)],2 % of positive control
11,IRVFLDNNP [5T4 9-mer peptide 144 (IRVFLDNNP)],4 % of positive control
12,LDNNPWVCD [5T4 9-mer peptide 146 (LDNNPWVCD)],0 % of positive control
13,NNPWVCDCH [5T4 9-mer peptide 147 (NNPWVCDCH)],0 % of positive control
14,PWVCDCHMA [5T4 9-mer peptide 148 (PWVCDCHMA)],0 % of positive control

# Source: patent US20090280138A1 (OXFORD BIOMEDICA UK, published 2009)
